Reference: the Human Domainome abundance scans (Beltran et al. 2025)
± gives the uncertainty stated by the source.

Experiment: abundance fitness (aPCA) (normalised: wild type 0, dead -1); higher = more abundant; growth selection in yeast, the domain comes from the species named
Conditions: Homo sapiens

Substance | abundance fitness
SAFB-like transcription modulator T23M, Q9NWH9 | -0.06 ± 0.038
SAFB-like transcription modulator T23N, Q9NWH9 | -0.066 ± 0.035
SAFB-like transcription modulator T23P, Q9NWH9 | -0.339 ± 0.031
SAFB-like transcription modulator T23Q, Q9NWH9 | -0.034 ± 0.046
SAFB-like transcription modulator T23R, Q9NWH9 | -0.178 ± 0.033
SAFB-like transcription modulator T23S, Q9NWH9 | -0.021 ± 0.032
SAFB-like transcription modulator T23V, Q9NWH9 | -0.049 ± 0.031
SAFB-like transcription modulator T23W, Q9NWH9 | -0.175 ± 0.047
SAFB-like transcription modulator T23Y, Q9NWH9 | -0.083 ± 0.033
SAFB-like transcription modulator T42A, Q9NWH9 | -0.045 ± 0.092
SAFB-like transcription modulator T42C, Q9NWH9 | 0.078 ± 0.097
SAFB-like transcription modulator T42D, Q9NWH9 | 0.061 ± 0.092
SAFB-like transcription modulator T42E, Q9NWH9 | -0.107 ± 0.12
SAFB-like transcription modulator T42G, Q9NWH9 | -0.247 ± 0.085
SAFB-like transcription modulator T42I, Q9NWH9 | -0.682 ± 0.14
SAFB-like transcription modulator T42K, Q9NWH9 | 0.035 ± 0.11
SAFB-like transcription modulator T42L, Q9NWH9 | -0.345 ± 0.069
SAFB-like transcription modulator T42M, Q9NWH9 | -0.104 ± 0.09
SAFB-like transcription modulator T42N, Q9NWH9 | -0.442 ± 0.16
SAFB-like transcription modulator T42P, Q9NWH9 | -0.729 ± 0.051
SAFB-like transcription modulator T42Q, Q9NWH9 | 0.127 ± 0.1
SAFB-like transcription modulator T42R, Q9NWH9 | 0.057 ± 0.084
SAFB-like transcription modulator T42S, Q9NWH9 | 0.071 ± 0.095
SAFB-like transcription modulator T42V, Q9NWH9 | -0.488 ± 0.099
SAFB-like transcription modulator T42W, Q9NWH9 | -0.315 ± 0.095

Substance | abundance fitness
SAFB-like transcription modulator T42Y, Q9NWH9 | 0.194 ± 0.11
SAFB-like transcription modulator T46A, Q9NWH9 | -0.062 ± 0.068
SAFB-like transcription modulator T46C, Q9NWH9 | 0.066 ± 0.074
SAFB-like transcription modulator T46D, Q9NWH9 | -0.235 ± 0.088
SAFB-like transcription modulator T46E, Q9NWH9 | 0.004 ± 0.068
SAFB-like transcription modulator T46F, Q9NWH9 | -0.358 ± 0.088
SAFB-like transcription modulator T46G, Q9NWH9 | -0.094 ± 0.06
SAFB-like transcription modulator T46H, Q9NWH9 | 0.011 ± 0.071
SAFB-like transcription modulator T46I, Q9NWH9 | -0.107 ± 0.073
SAFB-like transcription modulator T46K, Q9NWH9 | 0.074 ± 0.09
SAFB-like transcription modulator T46L, Q9NWH9 | -0.082 ± 0.052
SAFB-like transcription modulator T46M, Q9NWH9 | 0.111 ± 0.073
SAFB-like transcription modulator T46N, Q9NWH9 | 0.103 ± 0.093
SAFB-like transcription modulator T46P, Q9NWH9 | 0.037 ± 0.071
SAFB-like transcription modulator T46Q, Q9NWH9 | -0.137 ± 0.074
SAFB-like transcription modulator T46R, Q9NWH9 | -0.163 ± 0.064
SAFB-like transcription modulator T46S, Q9NWH9 | 0.05 ± 0.059
SAFB-like transcription modulator T46W, Q9NWH9 | -0.129 ± 0.038
SAFB-like transcription modulator T46Y, Q9NWH9 | -0.097 ± 0.088
SAFB-like transcription modulator V27A, Q9NWH9 | -0.395 ± 0.1
SAFB-like transcription modulator V27C, Q9NWH9 | -0.067 ± 0.094
SAFB-like transcription modulator V27D, Q9NWH9 | -0.127 ± 0.12
SAFB-like transcription modulator V27E, Q9NWH9 | -0.153 ± 0.11
SAFB-like transcription modulator V27F, Q9NWH9 | -0.585 ± 0.15
SAFB-like transcription modulator V27G, Q9NWH9 | -0.405 ± 0.088

Substance | abundance fitness
SAFB-like transcription modulator V27I, Q9NWH9 | -0.011 ± 0.054
SAFB-like transcription modulator V27K, Q9NWH9 | -0.533 ± 0.27
SAFB-like transcription modulator V27L, Q9NWH9 | -0.21 ± 0.082
SAFB-like transcription modulator V27M, Q9NWH9 | 0.158 ± 0.099
SAFB-like transcription modulator V27N, Q9NWH9 | -0.453 ± 0.16
SAFB-like transcription modulator V27Q, Q9NWH9 | -0.426 ± 0.15
SAFB-like transcription modulator V27R, Q9NWH9 | -0.241 ± 0.07
SAFB-like transcription modulator V27S, Q9NWH9 | -0.417 ± 0.097
SAFB-like transcription modulator V27T, Q9NWH9 | 0.086 ± 0.092
SAFB-like transcription modulator V27W, Q9NWH9 | -0.396 ± 0.09
SAFB-like transcription modulator V27Y, Q9NWH9 | -0.29 ± 0.24
SAFB-like transcription modulator V44A, Q9NWH9 | 0.064 ± 0.039
SAFB-like transcription modulator V44C, Q9NWH9 | 0.036 ± 0.076
SAFB-like transcription modulator V44D, Q9NWH9 | 0.055 ± 0.072
SAFB-like transcription modulator V44E, Q9NWH9 | -0.124 ± 0.075
SAFB-like transcription modulator V44F, Q9NWH9 | 0.002 ± 0.075
SAFB-like transcription modulator V44H, Q9NWH9 | 0.126 ± 0.089
SAFB-like transcription modulator V44I, Q9NWH9 | -0.057 ± 0.054
SAFB-like transcription modulator V44K, Q9NWH9 | -0.233 ± 0.088
SAFB-like transcription modulator V44L, Q9NWH9 | -0.122 ± 0.038
SAFB-like transcription modulator V44M, Q9NWH9 | -0.092 ± 0.058
SAFB-like transcription modulator V44N, Q9NWH9 | 0.048 ± 0.058
SAFB-like transcription modulator V44P, Q9NWH9 | 0.014 ± 0.049
SAFB-like transcription modulator V44Q, Q9NWH9 | -0.134 ± 0.078
